From US20060074081A1 (Pfizer, published 2006)

Molecular target: the molecule itself
Test: size-exclusion chromatography of the PR-LBD/tanaproget complex

B1: Human progesterone receptor ligand binding domain (PR-LBD), polypeptide following thrombin cleavage of the GST fusion (receptor)
chain: GSPGQDIQLIPPLINLLMSIEPDVIYAGHDNTKPDTSSSLLTSLNQLGERQLLSVVKWSKSLPGFRNLHIDDQITLIQYSWMSLMVFGLGWRSYKHVSGQMLYFAPDLILNEQRMKESSFYSLCLTMWQIPQEFVKLQVSQEEFLCMKVLLLLNTIPLEGLRSQTQFEEMRSSYIRELIKAIGLRQKGVVSSSQRFYQLTKLLDNLHDLVKQLHLYCLNTFIQSRALSVEFPEMMSEVIAAQLPKILAGMVKPLLFHKK
notes: In the size-exclusion run and in the crystal each chain carried the small molecule tanaproget; also called human PR-LBD; PR-LBD (675-933)
B1: binds.
